Patent publication US20240400715A1 (VIBRANT PHARMA, published 2024)
Positions count from the first letter of the chain named.

B1: 302 (TA3), configuration of FIG. 1W (bispecific antibody)
heavy: EVQLVESGGGLVQPGGSLRLSCAASGYSFTGYTMNWVRQAPGKGLEWVALINPYKGVSTYNQKFKDRFTISVDKSKNTAYLQMNSLRAEDTAVYYCARSGYYGDSDWYFDVWGQGTLVTVSSASTKGPSVFPLAPCSRSTSESTAALGCLVKDYFPEPVTVSWNSGALTSGVHTFPAVLQSSGLYSLSSVVTVPSSSLGTKTYTCNVDHKPSNTKVDKRVESKYGPPCPPCPAPEAAGGPSVFLFPPKPKDTLMISRTPEVTCVVVDVSQEDPEVQFNWYVDGVEVHNAKTKPREEQFNSTYRVVSVLTVLHQDWLNGKEYKCKVSNKGLPSSIEKTISKAKGQPREPQVYTLPPCQEEMTKNQVSLWCLVKGFYPSDIAVEWESNGQPENNYKTTPPVLDSDGSFFLYSRLTVDKSRWQEGNVFSCSVMHEALHNHYTQKSLSLSL
chain: EVQLVESGGGFVQAGESLTLSCTSSTLTFTPYRMAWYRQAPGKQRDLVADISSGDGRTTNYADFAKGRFTISRDNIKNTVFLRMTNLKPEDTAVYYCNTFVSFVGIARSWGQGTQVTVSSESKYGPPCPPCPAPEAAGGPSVFLFPPKPKDTLMISRTPEVTCVVVDVSQEDPEVQFNWYVDGVEVHNAKTKPREEQFNSTYRVVSVLTVLHQDWLNGKEYKCKVSNKGLPSSIEKTISKAKGQPREPQVCTLPPSQEEMTKNQVSLSCAVKGFYPSDIAVEWESNGQPENNYKTTPPVLDSDGSFFLVSRLTVDKSRWQEGNVFSCSVMHEALHNRFTQKSLSLSL
light: DIQMTQSPSSLSASVGDRVTITCRASQDIRNYLNWYQQKPGKAPKLLIYYTSRLESGVPSRFSGSGSGTDYTLTISSLQPEDFATYYCQQGNTLPWTFGQGTKVEIK
notes: not shown: kappa light chain constant domain (CL)
B2: 305 (TA6), configuration of FIG. 1W (bispecific antibody)
heavy: EVQLVQSGAEVKKPGASVKVSCKASGYTFTNYYIHWVRQAPGQGLEWIGWIYPGDGNTKYNEKFKGRATLTADTSTSTAYLELSSLRSEDTAVYYCARDSYSNYYFDYWGQGTLVTVSSASTKGPSVFPLAPCSRSTSESTAALGCLVKDYFPEPVTVSWNSGALTSGVHTFPAVLQSSGLYSLSSVVTVPSSSLGTKTYTCNVDHKPSNTKVDKRVESKYGPPCPPCPAPEAAGGPSVFLFPPKPKDTLMISRTPEVTCVVVDVSQEDPEVQFNWYVDGVEVHNAKTKPREEQFNSTYRVVSVLTVLHQDWLNGKEYKCKVSNKGLPSSIEKTISKAKGQPREPQVYTLPPCQEEMTKNQVSLWCLVKGFYPSDIAVEWESNGQPENNYKTTPPVLDSDGSFFLYSRLTVDKSRWQEGNVFSCSVMHEALHNHYTQKSLSLSL
chain: B1 chain
light: DIVMTQSPDSLAVSLGERATINCKSSQSLLNSRTRKNYLAWYQQKPGQPPKLLIYWASTRESGVPDRFSGSGSGTDFTLTISSLQAEDVAVYYCTQSFILRTFGQGTKVEIK
notes: as for B1
B3: 308 (TA3), configuration of FIG. 1X (bispecific antibody)
heavy: EVQLVESGGGLVQPGGSLRLSCAASGYSFTGYTMNWVRQAPGKGLEWVALINPYKGVSTYNQKFKDRFTISVDKSKNTAYLQMNSLRAEDTAVYYCARSGYYGDSDWYFDVWGQGTLVTVSSASTKGPSVFPLAPCSRSTSESTAALGCLVKDYFPEPVTVSWNSGALTSGVHTFPAVLQSSGLYSLSSVVTVPSSSLGTKTYTCNVDHKPSNTKVDKRVESKYGPPCPPCPAPEAAGGPSVFLFPPKPKDTLMISRTPEVTCVVVDVSQEDPEVQFNWYVDGVEVHNAKTKPREEQFNSTYRVVSVLTVLHQDWLNGKEYKCKVSNKGLPSSIEKTISKAKGQPREPQVYTLPPCQEEMTKNQVSLWCLVKGFYPSDIAVEWESNGQPENNYKTTPPVLDSDGSFFLYSRLTVDKSRWQEGNVFSCSVMHEALHNHYTQKSLSLSLGGGGSGGGGSEVQLVESGGGFVQAGESLTLSCTSSTLTFTPYRMAWYRQAPGKQRDLVADISSGDGRTTNYADFAKGRFTISRDNIKNTVFLRMTNLKPEDTAVYYCNTFVSFVGIARSWGQGTQVTVSS
chain: ESKYGPPCPPCPAPEAAGGPSVFLFPPKPKDTLMISRTPEVTCVVVDVSQEDPEVQFNWYVDGVEVHNAKTKPREEQFNSTYRVVSVLTVLHQDWLNGKEYKCKVSNKGLPSSIEKTISKAKGQPREPQVCTLPPSQEEMTKNQVSLSCAVKGFYPSDIAVEWESNGQPENNYKTTPPVLDSDGSFFLVSRLTVDKSRWQEGNVFSCSVMHEALHNRFTQKSLSLSL
light: B1 light
notes: as for B1
B4: 306 (TA7), configuration of FIG. 1W (bispecific antibody)
heavy: B2 heavy with Y27F, N31S, G54E, D55N, G56D, G66D, A68V, L70I, S100G, N103R
chain: B1 chain
light: B2 light with P49S, A57T, E61K, T95K
notes: as for B1
B5: 304 (TA5), configuration of FIG. 1W (bispecific antibody)
heavy: DVQLVQSGAEVKKPGASVKVSCKASGYTFTRYTMHWVRQAPGQGLEWIGYINPSRGYTNYADSVKGRFTITTDKSTSTAYMELSSLRSEDTATYYCARYYDDHYCLDYWGQGTTVTVSSASTKGPSVFPLAPCSRSTSESTAALGCLVKDYFPEPVTVSWNSGALTSGVHTFPAVLQSSGLYSLSSVVTVPSSSLGTKTYTCNVDHKPSNTKVDKRVESKYGPPCPPCPAPEAAGGPSVFLFPPKPKDTLMISRTPEVTCVVVDVSQEDPEVQFNWYVDGVEVHNAKTKPREEQFNSTYRVVSVLTVLHQDWLNGKEYKCKVSNKGLPSSIEKTISKAKGQPREPQVYTLPPCQEEMTKNQVSLWCLVKGFYPSDIAVEWESNGQPENNYKTTPPVLDSDGSFFLYSRLTVDKSRWQEGNVFSCSVMHEALHNHYTQKSLSLSL
chain: B1 chain
light: DIVLTQSPATLSLSPGERATLSCRASQSVSYMNWYQQKPGKAPKRWIYDTSKVASGVPARFSGSGSGTDYSLTINSLEAEDAATYYCQQWSSNPLTFGGGTKVEIK
notes: VL row printed 'TAS VL', read as TA5 VL; full chains assembled from parts; not shown: kappa light chain constant domain (CL)
B6: 310 (TA5), configuration of FIG. 1X (bispecific antibody)
heavy: DVQLVQSGAEVKKPGASVKVSCKASGYTFTRYTMHWVRQAPGQGLEWIGYINPSRGYTNYADSVKGRFTITTDKSTSTAYMELSSLRSEDTATYYCARYYDDHYCLDYWGQGTTVTVSSASTKGPSVFPLAPCSRSTSESTAALGCLVKDYFPEPVTVSWNSGALTSGVHTFPAVLQSSGLYSLSSVVTVPSSSLGTKTYTCNVDHKPSNTKVDKRVESKYGPPCPPCPAPEAAGGPSVFLFPPKPKDTLMISRTPEVTCVVVDVSQEDPEVQFNWYVDGVEVHNAKTKPREEQFNSTYRVVSVLTVLHQDWLNGKEYKCKVSNKGLPSSIEKTISKAKGQPREPQVYTLPPCQEEMTKNQVSLWCLVKGFYPSDIAVEWESNGQPENNYKTTPPVLDSDGSFFLYSRLTVDKSRWQEGNVFSCSVMHEALHNHYTQKSLSLSLGGGGSGGGGSEVQLVESGGGFVQAGESLTLSCTSSTLTFTPYRMAWYRQAPGKQRDLVADISSGDGRTTNYADFAKGRFTISRDNIKNTVFLRMTNLKPEDTAVYYCNTFVSFVGIARSWGQGTQVTVSS
chain: B3 chain
light: B5 light
notes: as for B5
B7: 311 (TA6), configuration of FIG. 1X (bispecific antibody)
heavy: EVQLVQSGAEVKKPGASVKVSCKASGYTFTNYYIHWVRQAPGQGLEWIGWIYPGDGNTKYNEKFKGRATLTADTSTSTAYLELSSLRSEDTAVYYCARDSYSNYYFDYWGQGTLVTVSSASTKGPSVFPLAPCSRSTSESTAALGCLVKDYFPEPVTVSWNSGALTSGVHTFPAVLQSSGLYSLSSVVTVPSSSLGTKTYTCNVDHKPSNTKVDKRVESKYGPPCPPCPAPEAAGGPSVFLFPPKPKDTLMISRTPEVTCVVVDVSQEDPEVQFNWYVDGVEVHNAKTKPREEQFNSTYRVVSVLTVLHQDWLNGKEYKCKVSNKGLPSSIEKTISKAKGQPREPQVYTLPPCQEEMTKNQVSLWCLVKGFYPSDIAVEWESNGQPENNYKTTPPVLDSDGSFFLYSRLTVDKSRWQEGNVFSCSVMHEALHNHYTQKSLSLSLGGGGSGGGGSEVQLVESGGGFVQAGESLTLSCTSSTLTFTPYRMAWYRQAPGKQRDLVADISSGDGRTTNYADFAKGRFTISRDNIKNTVFLRMTNLKPEDTAVYYCNTFVSFVGIARSWGQGTQVTVSS
chain: B3 chain
light: B2 light
notes: as for B1

target: T1, human CD3ε/δ (ACRO systems, CDD-H52W1) (human, UniProt P07766 23-126; P04234 22-105); assay: serum-stability ELISA, Day 10 vs Day 0
T1 construct: bought recombinant heterodimer; also called human CD3 epsilon/delta; Human CD3ε/CD3δ
Protocol: (§1) The samples to be tested were centrifuged at 4° C. at 12000 rpm for 30 minutes to remove the precipitate. 200 μl of each sample to be tested (0.5 mg/ml) was collected in a 1.5 ml Eppendorf tube. An equal volume of human serum (GEMINI, H2OYOOK) was added, mixed thoroughly, and the mixture was incubated in a 37° C. constant temperature CO₂ incubator. For a total of 10 days, 40 μl samples was aspirated every day and stored at −20° C.
(§2) Enzyme-linked immunosorbent assay (ELISA) was used to test the bispecific antibodies' binding to human CEA and human CD3 epsilon/delta antigen. The steps are as follows: the antigen human CD3ε/δ (ACRO systems, CDD-H52W1) and the recombinant tumor antigen human CEA (CEACAM-5/CD66e, ACRO systems, CE5-H5226) were diluted to 1 μg/ml with PBS, and then added to the 96-well plate at 100 μl per well. The wells were coated overnight at 4° C. After washing 3 times with 0.05% PBST, 200 μl 5% skimmed milk powder was added to each well and incubated at 37° C. for 2 h. After washing 3 times with 0.05% PBST, 100 μl primary antibody sample (10 μg/ml) was added to each well, and incubated at 37° C. for 2 h. After washing 3 times with 0.05% PBST, 100 μl (1:6000) diluted secondary antibody goat anti-human Fc-HRP (sigma, A2170) was added to each well, incubated at room temperature for 1 h. After washing 8 times with 0.05% PBST, 50 μl TMB color developing solution was added to each well, and incubated at room temperature for 10-15 min. 50 μl 1 mM HCl was added to each well to stop the color development. 450 nm Absorbance (OD) was read.
(§3) The binding of antibodies to antigen was calculated according to the following formula: Binding (%)=[(ODdayn−ODb)/(ODday0−ODb)]×100%. ODdayn: experimental well (the protein was stored in the serum for n days); ODday0: control well (the protein was not stored in the serum); ODb: blank well (no primary antibody added).

| Binder | Binding % [%] |
| --- | --- |
| B1 | 106 |
| B2 | 108 |
| B3 | 103 |
| B4 | 112 |
| B5 | 101 |
| B6 | 101 |
| B7 | 101 |

target: T1, human CD3ε/δ (ACRO systems, CDD-H52W1); assay: serum-stability ELISA, Day 2 vs Day 0
Protocol: as §1, §2, §3

| Binder | Binding % [%] |
| --- | --- |
| B1 | 104 |
| B2 | 109 |
| B3 | 100 |
| B4 | 110 |
| B5 | 106 |
| B6 | 90.2 |
| B7 | 105 |

target: T1, human CD3ε/δ (ACRO systems, CDD-H52W1); assay: serum-stability ELISA, Day 1 vs Day 0
Protocol: as §1, §2, §3

| Binder | Binding % [%] |
| --- | --- |
| B1 | 108 |
| B2 | 112 |
| B3 | 106 |
| B4 | 112 |
| B5 | 108 |
| B6 | 96.1 |
| B7 | 105 |

target: T1, human CD3ε/δ (ACRO systems, CDD-H52W1); assay: serum-stability ELISA, Day 6 vs Day 0
Protocol: as §1, §2, §3

| Binder | Binding % [%] |
| --- | --- |
| B1 | 107 |
| B2 | 111 |
| B3 | 103 |
| B4 | 101 |
| B5 | 105 |
| B6 | 93.2 |
| B7 | 104 |

target: T1, human CD3ε/δ (ACRO systems, CDD-H52W1); assay: serum-stability ELISA, Day 0 (reference)

| Binder | Binding % [%] |
| --- | --- |
| B1 | 100 |
| B2 | 100 |
| B3 | 100 |
| B4 | 100 |
| B5 | 100 |
| B6 | 100 |
| B7 | 100 |

target: T1, human CD3ε/δ (ACRO systems, CDD-H52W1); assay: serum-stability ELISA, Day 7 vs Day 0
Protocol: as §1, §2, §3

| Binder | Binding % [%] |
| --- | --- |
| B1 | 104 |
| B2 | 110 |
| B3 | 109 |
| B4 | 105 |
| B5 | 107 |
| B6 | 89.2 |
| B7 | 101 |

target: T1, human CD3ε/δ (ACRO systems, CDD-H52W1); assay: serum-stability ELISA, Day 5 vs Day 0
Protocol: as §1, §2, §3

| Binder | Binding % [%] |
| --- | --- |
| B1 | 110 |
| B2 | 110 |
| B3 | 107 |
| B4 | 115 |
| B5 | 100 |
| B6 | 92.2 |
| B7 | 103 |

target: T1, human CD3ε/δ (ACRO systems, CDD-H52W1); assay: serum-stability ELISA, Day 9 vs Day 0
Protocol: as §1, §2, §3

| Binder | Binding % [%] |
| --- | --- |
| B1 | 103 |
| B2 | 109 |
| B3 | 110 |
| B4 | 95.1 |
| B5 | 101 |
| B6 | 90.3 |
| B7 | 100 |
